Results published in paper PMC9233744.
No end group written: not given here.

B1: FITC-labeled SHP144 (SHP144-C13), wild type (peptide)
peptide: SEWVIVIPFLTNL
modifications: also: FITC label, position not given here
B2: FITC-labeled SHP144 L26A (peptide)
peptide: SEWVIVIPFLTNA
modifications: also: FITC label, position not given here
B3: FITC-labeled SHP144 N25A (peptide)
peptide: SEWVIVIPFLTAL
modifications: also: FITC label, position not given here
B4: FITC-labeled SHP144 W16A (peptide)
peptide: SEAVIVIPFLTNL
modifications: also: FITC label, position not given here
B5: FITC-labeled SHP144 L23A (peptide)
peptide: SEWVIVIPFATNL
modifications: also: FITC label, position not given here
B6: FITC-labeled SHP144 S14A (peptide)
peptide: AEWVIVIPFLTNL
modifications: also: FITC label, position not given here
B7: unlabeled SHP144 (13-residue synthetic peptide, wild type) (peptide)
peptide: SEWVIVIPFLTNL
B8: FITC-labeled SHP144 V19A (peptide)
peptide: SEWVIAIPFLTNL
modifications: also: FITC label, position not given here
B9: FITC-labeled SHP144 F22A (peptide)
peptide: SEWVIVIPALTNL
modifications: also: FITC label, position not given here
B10: FITC-labeled SHP144 I20A (peptide)
peptide: SEWVIVAPFLTNL
modifications: also: FITC label, position not given here
B11: FITC-labeled SHP144 V17A (peptide)
peptide: SEWAIVIPFLTNL
modifications: also: FITC label, position not given here
B12: FITC-labeled SHP144 T24A (peptide)
peptide: SEWVIVIPFLANL
modifications: also: FITC label, position not given here
B13: FITC-labeled SHP144 E15A (peptide)
peptide: SAWVIVIPFLTNL
modifications: also: FITC label, position not given here
B14: FITC-labeled SHP144 P21A (peptide)
peptide: SEWVIVIAFLTNL
modifications: also: FITC label, position not given here
B15: FITC-labeled SHP144 I18A (peptide)
peptide: SEWVAVIPFLTNL
modifications: also: FITC label, position not given here

Biological target: Rgg144 (recombinant, Streptococcus pneumoniae D39, SPD_0144) (Streptococcus pneumoniae D39)
Assay: SEC

With “Rgg144 (recombinant, Streptococcus pneumoniae D39, SPD_0144) (natural protein)” the stoichiometry N was 2.

Biological target: Rgg144 (recombinant, Streptococcus pneumoniae D39, SPD_0144) (Streptococcus pneumoniae D39)
Assay: fluorescence polarisation

Point of comparison: B8, Kd 4 µM. Against it:
- B1 — 1.6-fold higher, 6.6 µM
- B2 — within 1.5-fold, 3.4 µM
- B3 — within 1.5-fold, 3.3 µM
- B4 — 12-fold higher, 50 µM
- B5 — within 1.5-fold, 4.3 µM
- B6 — 2-fold higher, 8.1 µM
- B9 — 1.8-fold higher, 7.1 µM
- B10 — 5.9-fold higher, 23.5 µM
- B11 — 2.4-fold higher, 9.7 µM
- B12 — within 1.5-fold, 3.3 µM
- B13 — within 1.5-fold, 3.3 µM
- B14 — 2.4-fold lower, 1.7 µM
- B15 — higher, > 100 µM

B7 gave an IC50 of 86.8 µM.
